Test results as given in article PMC10163027, “Coordinated regulation of vegetative phase change by brassinosteroids and the age pathway in Arabidopsis” (Nature Communications, 2023).

B1: GST-BIN2 (enzyme, Arabidopsis, UniProt Q39011 1-380, looked up)
chain: MADDKEMPAAVVDGHDQVTGHIISTTIGGKNGEPKQTISYMAERVVGTGSFGIVFQAKCLETGETVAIKKVLQDRRYKNRELQLMRVMDHPNVVCLKHCFFSTTSKDELFLNLVMEYVPESLYRVLKHYSSANQRMPLVYVKLYMYQIFRGLAYIHNVAGVCHRDLKPQNLLVDPLTHQVKICDFGSAKQLVKGEANISYICSRFYRAPELIFGATEYTTSIDIWSAGCVLAELLLGQPLFPGENAVDQLVEIIKVLGTPTREEIRCMNPHYTDFRFPQIKAHPWHKIFHKRMPPEAIDFASRLLQYSPSLRCTALEACAHPFFDELREPNARLPNGRPFPPLFNFKQEVAGSSPELVNKLIPDHIKRQLGLSFLNQSGT
notes: BIN2, GSK3-like kinase of Arabidopsis; the BIN2 ORF was cloned into pPGH (derived from pGEX4T-2); Printed both as GST-BIN2 and BIN2-GST; a vector derived from pGEX4T-2 would put GST at the N-terminus (surmised); also called BIN2-GST; pPGH-BIN2; source: E. coli Rosetta (DE3), purified (GST resin)
B2: 6×His-SPL9 (natural protein, Arabidopsis, UniProt Q700W2 1-375, looked up)
chain: MEMGSNSGPGHGPGQAESGGSSTESSSFSGGLMFGQKIYFEDGGGGSGSSSSGGRSNRRVRGGGSGQSGQIPRCQVEGCGMDLTNAKGYYSRHRVCGVHSKTPKVTVAGIEQRFCQQCSRFHQLPEFDLEKRSCRRRLAGHNERRRKPQPASLSVLASRYGRIAPSLYENGDAGMNGSFLGNQEIGWPSSRTLDTRVMRRPVSSPSWQINPMNVFSQGSVGGGGTSFSSPEIMDTKLESYKGIGDSNCALSLLSNPHQPHDNNNNNNNNNNNNNNTWRASSGFGPMTVTMAQPPPAPSQHQYLNPPWVFKDNDNDMSPVLNLGRYTEPDNCQISSGTAMGEFELSDHHHQSRRQYMEDENTRAYDSSSHHTNWSL
notes: SPL9 of Arabidopsis; the SPL9 ORF was cloned into pET-30a (+); Printed both as 6×His-SPL9 and SPL9-His; pET-30a(+) may add further vector residues (surmised); also called SPL9-His; SPL9-HIS; source: E. coli Rosetta (DE3), purified (Ni-NTA)

How the values were obtained:
6×His-TOE1 = target: T1, 6×His-TOE1 (Arabidopsis, UniProt Q9SK03 1-449); assay: pull-down; purified His-tagged protein incubated with resin bound with GST or GST-BIN2 at 4 °C for 4 h; washed five times with PBS-EW; blots with anti-His and anti-GST; details: both partners purified
T1 construct: TOE1 (AP2-like protein) of Arabidopsis; the TOE1 ORF was cloned into pET-30a (+); Printed both as 6×His-TOE1 and TOE1-His; pET-30a(+) may add further vector residues (surmised); also called TOE1-His; TOE1-HIS; source: E. coli Rosetta (DE3), purified (Ni-NTA)

GST-BIN2 = target: B1; assay: as above; details: both partners purified

T1 sequence (Q9SK03 whole entry): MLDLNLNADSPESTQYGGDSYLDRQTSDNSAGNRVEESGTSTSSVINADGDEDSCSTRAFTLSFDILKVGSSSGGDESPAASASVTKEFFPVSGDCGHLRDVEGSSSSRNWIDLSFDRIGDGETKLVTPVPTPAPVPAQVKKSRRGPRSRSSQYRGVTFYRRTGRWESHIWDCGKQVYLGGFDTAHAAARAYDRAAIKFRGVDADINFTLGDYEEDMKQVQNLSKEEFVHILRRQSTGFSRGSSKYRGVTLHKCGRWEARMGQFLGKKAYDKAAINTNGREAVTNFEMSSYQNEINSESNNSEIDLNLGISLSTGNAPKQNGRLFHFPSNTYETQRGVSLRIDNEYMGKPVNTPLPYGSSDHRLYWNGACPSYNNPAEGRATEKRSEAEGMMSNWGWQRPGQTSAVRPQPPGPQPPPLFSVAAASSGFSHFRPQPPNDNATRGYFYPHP

| Binder | binding result (6×His-TOE1) | binding result (GST-BIN2) |
| --- | --- | --- |
| B1 | binds |  |
| B2 |  | binds |
